Patent publication US20150175693A1 (UNIVERSIT TSKLINIKUM REGENSBURG, published 2015)

Biological target: T1, IL-3 receptors on human basophils, pDC, monocytes and B cells (PBMC) (human, UniProt P26951 19-378; P32927 17-897)
T1 construct: whole, on cells; Natural receptor on primary human blood cells; the cells were sorted by CD123 and HLA-DR staining; also called CD123
Assay: flow cytometry, biotinylated hIL-3 on human PBMC, avidin-FITC
Protocol: Binding of IL-3 to human peripheral blood mononuclear cells (PBMC) was analysed using commerically available biotinylated IL-3. For the assay, biotinylated IL-3 was incubated with PBMC and binding detected via Avidin-Fluorescein (biotinylated hIL-3 and other reagents obtained from R&D Systems, Inc., Cat. No. NF300).
10 μl of the isolated and incubated PBMC cell preparation (10 Mio. cells/ml) were added to each of the preincubated IL-3/antibody or negative control samples and further incubated for 1 hour at 4° C. For the detection of IL-3 bound to PBMC, 10 μl avidin-FITC reagent together with anti-human CD123 PE-Cy5 (1:10) and anti-HLA-DR II APC (1:50) were added and the samples incubated for a further 30 min at 4° C. Cells were washed twice with 2 ml 1×RDF1 buffer and resuspended in 200 μl of this buffer per sample and FACS analysis performed. Basophils were identified by high expression of CD123 and absence of HLA-DR. Plasmacytoid dendritic cells (pDC) were identified by high expression of CD123 and HLA-DR. Monocytes and B cells were identified by light scatter properties and expression of HLA-DR.

T1 sequence (P26951 19-378, chain 1 of 2): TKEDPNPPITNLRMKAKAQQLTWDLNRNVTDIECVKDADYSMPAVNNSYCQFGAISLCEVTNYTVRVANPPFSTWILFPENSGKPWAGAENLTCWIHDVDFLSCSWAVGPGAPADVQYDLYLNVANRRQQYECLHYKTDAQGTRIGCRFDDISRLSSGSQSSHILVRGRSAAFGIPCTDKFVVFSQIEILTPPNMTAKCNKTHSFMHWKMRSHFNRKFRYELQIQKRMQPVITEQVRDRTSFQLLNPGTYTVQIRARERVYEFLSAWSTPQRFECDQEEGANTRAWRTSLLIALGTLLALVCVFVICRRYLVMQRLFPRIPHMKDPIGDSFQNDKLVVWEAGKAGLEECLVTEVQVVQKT
T1 sequence (P32927 17-897, chain 2 of 2): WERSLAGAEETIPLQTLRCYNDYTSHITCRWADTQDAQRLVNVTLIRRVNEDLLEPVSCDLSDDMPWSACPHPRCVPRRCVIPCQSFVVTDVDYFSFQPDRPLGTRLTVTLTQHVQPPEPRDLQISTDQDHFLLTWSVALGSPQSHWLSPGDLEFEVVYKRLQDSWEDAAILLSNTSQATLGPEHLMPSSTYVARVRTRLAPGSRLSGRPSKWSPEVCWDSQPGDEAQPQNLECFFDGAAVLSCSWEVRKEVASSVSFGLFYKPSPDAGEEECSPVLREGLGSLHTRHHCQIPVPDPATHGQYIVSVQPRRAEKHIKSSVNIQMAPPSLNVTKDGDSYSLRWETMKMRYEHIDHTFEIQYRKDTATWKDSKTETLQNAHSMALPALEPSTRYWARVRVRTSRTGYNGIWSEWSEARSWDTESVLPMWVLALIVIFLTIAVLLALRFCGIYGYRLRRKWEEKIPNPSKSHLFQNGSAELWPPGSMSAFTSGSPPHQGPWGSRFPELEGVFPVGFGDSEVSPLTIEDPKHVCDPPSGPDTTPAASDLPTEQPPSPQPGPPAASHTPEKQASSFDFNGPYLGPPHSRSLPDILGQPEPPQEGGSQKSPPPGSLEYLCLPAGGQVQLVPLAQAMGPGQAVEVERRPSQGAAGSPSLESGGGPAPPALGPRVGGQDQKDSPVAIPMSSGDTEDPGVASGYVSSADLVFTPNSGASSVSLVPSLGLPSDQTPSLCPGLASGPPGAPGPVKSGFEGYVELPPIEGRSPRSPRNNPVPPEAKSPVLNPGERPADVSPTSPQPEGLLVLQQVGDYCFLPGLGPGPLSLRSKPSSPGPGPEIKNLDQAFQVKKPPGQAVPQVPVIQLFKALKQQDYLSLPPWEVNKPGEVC

- binding result: binds
B1: biotinylated hIL-3 (R&D Systems, Cat. No. NF300) (ligand)
chain: APMTQTTPLKTSWVNCSNMIDEIITHLKQPPLPLLDFNNLNGEDQDILMENNLRRPNLEAFNRAVKSLQNASAIESILKNLLPCLPLATAAPTRHPIHIKDGDWNEFRRKLTFYLKTLENAQAQQTTLSLAIF
modifications: biotinylated (sites not given)
notes: Bought reagent; also called biotinylated IL-3
